Experimental data taken from publication PMC6335420, “The cell cycle regulator GpsB functions as cytosolic adaptor for multiple cell wall enzymes” (Nature Communications, 2019).
Residues, ends and D or L forms follow the SMILES beside them. No end group written: not given here. *: point of attachment. Fluorescein(5-Mal) = O=C1OC2(c3ccc(O)cc3Oc3cc(O)ccc32)c2ccc(N3C(=O)CC(*)C3=O)cc21

Legend:
BsGpsB1-68Lys32Glu = target: T1, BsGpsB1-68Lys32Glu (Bacillus subtilis, UniProt P0CI74, K32E); test: Fluorescence polarisation binding to BsGpsB1-68Lys32Glu; details: FP, relative to wild-type LmPBPA1 peptide
T1 construct: His6 (N, cleaved yes); made in house; host or cells: E. coli BL21(DE3)
T1 sequence (P0CI74 1-68 K32E): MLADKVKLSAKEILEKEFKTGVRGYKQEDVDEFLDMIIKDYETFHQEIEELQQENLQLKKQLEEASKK
Excerpt: 75 the BsGpsB5-64:BsPBP11-17 complex.

LmGpsB = test: BACTH (bacterial two-hybrid) interaction with LmGpsB; format: cell-based, Listeria monocytogenes; details: E. coli BTH101, 30 °C, photographed after 24 and 48 h; LmPBPA1 variants as T25-PBPA1ΔGT-TP
Excerpt: The BACTH system[63] was used for analysis of protein:protein interactions. First, LmGpsB was screened against LmPBPA1 (lmo1892) variants to identify residues in LmPBPA1 that are important for binding LmGpsB. To facilitate screening, we used a T25 fragment of Bordetella pertussis adenylate cyclase that had been fused to the N-terminal 91 amino acids of LmPBPA1 to create a T25-LmPBPA1 fusion containing the N-terminal cytoplasmic mini-domain and the transmembrane helix, but lacking lacking the extracellular glycosyltransferase and transpeptidase domains (T25-PBPA1ΔGT-TP) in plasmid pSH437[21]. LmPBPA1 residues that corresponded to the BsGpsB binding motif of BsPBP1 (Thr7, Arg8, Tyr11, Arg12) and additional positively charged amino acids (Lys14, Lys20, Lys21, Lys22, Lys25, Arg26, Lys28 and Arg29) in T25-PBP A1ΔGT-TP were replaced with alanine prior to screening against GpsB-T18. The pSH437 plasmid was mutated by Quikchange mutagenesis using the primer pairs SHW744/SHW754 (T7A, pSH485), SHW746/SHW747 (R8A, pSH486), SHW755/SHW756 (Y11A, pSH487), SHW748/SHW749 (R12A, pSH488), SHW757/SHW758 (K14A, pSH489), SHW759/SHW760 (K20A, pSH490), SHW761/SHW762 (K21A, pSH491), SHW763/SHW764 (K22A, pSH492), SHW765/SHW766 (K25A, pSH493), SHW767/SHW768 (R26A, pSH494), SHW769/SHW770 (K28A, pSH495) and SHW771/SHW772 (R29A, pSH496).
pJR164 and pJR169 were constructed by cloning sepF (primers JR334/JR335 and XbaI/KpnI digestion) into pKT25 and p25-N, respectively. pJR165 and pJR170 were generated by cloning ezrA into pKT25 and p25-N, respectively, using primers JR339/JR340 and XbaI/KpnI for digestion. pJR172 and pJR174 were obtained by cloning zapA into pKT25 and p25-N, respectively, using primers JR337/JR338 and PstI/KpnI. pJR213 was constructed by amplification of divIB with primers JR353/JR354 and cloning into pKT25 using XbaI/KpnI. pJR214 was generated by PCR amplification of divIC with primers JR355/JR356 and cloning into pKT25 using XbaI/KpnI. mreBH was amplified by PCR using oligonucleotides JR368/JR369 and cloned into pKT25 and p25-N using XbaI/KpnI, resulting in pJR233 and pJR236, respectively. pJR242 and pJR243 were obtained by cloning mreC into pKT25 and p25-N, respectively, using primers JR364/JR365 and PstI/KpnI digestion. pbpA2 was cloned into pKT25 using oligonucleotides SHW153/SHW154 and XbaI/KpnI to create pJR250. pbpB1 was amplified with primers SHW157/SHW158 and cloned with SmaI/EcoRI into pKT25, yielding pSH236. pbpB2 was amplified with primers SHW155/SHW156 and cloned into pKT25 after PstI/BamHI digestion, yielding plasmid pSH235. pbpB3 was amplified using primers SHW159/160 and cloned by PstI/BamHI digestion into pKT25, resulting in pSH237. Finally, pSH484 was obtained by removing the N-terminal domain from gpsB present on plasmid pSH226 in a PCR with the primer pair SHW752/SHW753.
Plasmids encoding the respective genes fused to the N- or C-termini of the T18- or the T25-fragment of the Bordetella pertussis adenylate cyclase were co-transformed into E. coli BTH101. Transformants were selected on LB agar plates containing ampicillin (100 µg^−1mL^−1), kanamycin (50 µg^−1mL^−1), X-Gal (40 µg^−1mL^−1) and IPTG (0.1 mM) and photographs were taken after 24 and 48h growth at 30 °C. The BACTH experiments in Fig. 2b and Supplementary Figure 3C, D were repeated at least twice.

[1] = target: T2, BsPBP1_(1-32), TAMRA-labelled at position 16 (B. subtilis, UniProt P39793 1-32, Ser16Cys, TAMRA (maleimide) at position 16); test: fluorescence polarisation; GpsB protein titrated into fluorescently labelled peptide; 10 mM Tris.HCl pH 8.0, 250 mM NaCl, 0.1% reduced Triton X-100; fit to a 1:1 interaction model; details: both partners purified
T2 construct: PBP1, Bacillus subtilis, residues 1-32; also called BsPBPA1_(1-32); BsPBP1A_(1-32); source: E. coli, His-tagged MBP fusion purified (Ni-NTA), labelled, TEV-cleaved, ultrafiltration
T2 peptide (looked up): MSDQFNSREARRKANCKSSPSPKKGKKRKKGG

[2] = Circular dichroism thermal unfolding of BsGpsB1-68 variants; format: physicochemical; details: CD at 222 nm vs temperature, 4.5 μM protein, 20 mM sodium phosphate (pH 7.8) 150 mM NaCl, 1 °C/min
Protocol: CD spectra were recorded on a JASCO J-810 spectropolarimeter with a PTC-4235 Peltier temperature controller using 1 mm path length quartz cuvettes. For full wavelength scans a scan speed of 10 nm^−1min^−1 and a response time of 4 s were used, the final spectra were the average of at least four measurements. BsPBP1_1-32 CD spectra were recorded at 4 °C in a buffer of 20 mM sodium phosphate, pH 7.3 at a peptide concentration of 25 μM. Peptide helical contents were estimated from molar ellipticities at 222 nm using the equation helix = [θ]222 nm / (39,500(1–2.57/n))[78] where n is the number of residues in the peptide. LmPBPA1_1-15 CD spectra were analysed at 40 μM in 20 mM sodium phosphate buffer, pH 7.8, for samples containing 0, 40 and 60% trifluoroethanol (TFE). For samples containing 80% TFE, 5 mM sodium phosphate buffer, pH 7.8, was used. The CD spectra of BsGpsB1-68 proteins were measured at a concentration of 4.5 μM in a buffer of 20 mM sodium phosphate (pH 7.8) 150 mM NaCl. For thermal melt experiments, a response time of 8 s and scan rate of 1 °C^−1min^−1 were used. All thermal melts were reversible as CD spectra recorded before and after the melts in the wavelength range 200–240 nm could be superimposed.

BsGpsB_(1-68) = target: T3, BsGpsB_(1-68) (B. subtilis, UniProt P0CI74 1-68); test: fluorescence polarisation; GpsB protein titrated into fluorescently labelled peptide; 10 mM Tris.HCl pH 8.0, 250 mM NaCl, 0.1% reduced Triton X-100; fit to a 1:1 interaction model; details: both partners purified
T3 construct: GpsB, Bacillus subtilis, residues 1-68; also called N-terminal domain of BsGpsB; source: E. coli, purified (Ni-NTA, thrombin, size exclusion)
T3 sequence (looked up): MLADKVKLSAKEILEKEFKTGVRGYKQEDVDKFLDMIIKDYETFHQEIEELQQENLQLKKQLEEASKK

Molecule | reduction in affinity for BsGpsB1-68Lys32Glu (BsGpsB1-68Lys32Glu) | impact of mutation on protein stability [2] | other results
CSCC[C@H](NC(=O)[C@H](CO)NC(=O)CN)C(=O)N[C@@H](C)C(=O)N[C@@H](CC(=O)O)C(=O)N[C@@H](CCCCN)C(=O)N1CCC[C@H]1C(=O)N[C@@H](CCC(N)=O)C(=O)N[C@H](C(=O)N[C@@H](C)C(=O)N[C@@H](CO)C(=O)N[C@@H](CCC(N)=O)C(=O)N[C@@H](Cc1ccc(O)cc1)C(=O)N[C@@H](CCCNC(=N)N)C(=O)N[C@@H](CC(N)=O)C(=O)N[C@@H](CCCCN)C(=O)N[C@@H](CCC(N)=O)C(=O)N[C@@H](CCCNC(=N)N)C(=O)NCC(=O)NCC(=O)N[C@@H](CSC1CC(=O)N(c2ccc3c(c2)C(=O)OC32c3ccc(O)cc3Oc3cc(O)ccc32)C1=O)C(=O)N[C@@H](CCCCN)C(=O)O)[C@@H](C)O (stereo partly drawn) [Fluorescein-LmPBPA11-20 Arg8AlaSer16Arg] (H-GSMADKPQTASQYRNKQRGGC(Fluorescein(5-Mal))K-OH; N-terminus and C-terminus assumed) | at least 10 fold |  | 
CSCC[C@H](NC(=O)[C@H](CO)NC(=O)CN)C(=O)N[C@@H](C)C(=O)N[C@@H](CC(=O)O)C(=O)N[C@@H](CCCCN)C(=O)N1CCC[C@H]1C(=O)N[C@@H](CCC(N)=O)C(=O)N[C@H](C(=O)N[C@@H](C)C(=O)N[C@@H](CO)C(=O)N[C@@H](CCC(N)=O)C(=O)N[C@@H](Cc1ccc(O)cc1)C(=O)N[C@@H](CCCNC(=N)N)C(=O)N[C@@H](CC(N)=O)C(=O)N[C@@H](CCCCN)C(=O)N[C@@H](CCC(N)=O)C(=O)N[C@@H](CO)C(=O)NCC(=O)NCC(=O)N[C@@H](CSC1CC(=O)N(c2ccc3c(c2)C(=O)OC32c3ccc(O)cc3Oc3cc(O)ccc32)C1=O)C(=O)N[C@@H](CCCCN)C(=O)O)[C@@H](C)O (stereo partly drawn) [Fluorescein-LmPBPA11-20 Arg8Ala] (H-GSMADKPQTASQYRNKQSGGC(Fluorescein(5-Mal))K-OH; N-terminus and C-terminus assumed) | > 15 fold |  | BACTH interaction with LmGpsB (LmGpsB): significant negative impact
CSCC[C@H](NC(=O)[C@H](CO)NC(=O)CN)C(=O)N[C@@H](C)C(=O)N[C@@H](CC(=O)O)C(=O)N[C@@H](CCCCN)C(=O)N1CCC[C@H]1C(=O)N[C@@H](CCC(N)=O)C(=O)N[C@H](C(=O)N[C@@H](CCCNC(=N)N)C(=O)N[C@@H](CO)C(=O)N[C@@H](CCC(N)=O)C(=O)N[C@@H](Cc1ccc(O)cc1)C(=O)N[C@@H](C)C(=O)N[C@@H](CC(N)=O)C(=O)N[C@@H](CCCCN)C(=O)N[C@@H](CCC(N)=O)C(=O)N[C@@H](CO)C(=O)NCC(=O)NCC(=O)N[C@@H](CSC1CC(=O)N(c2ccc3c(c2)C(=O)OC32c3ccc(O)cc3Oc3cc(O)ccc32)C1=O)C(=O)N[C@@H](CCCCN)C(=O)O)[C@@H](C)O (stereo partly drawn) [Fluorescein-LmPBPA11-20 Arg12Ala] (H-GSMADKPQTRSQYANKQSGGC(Fluorescein(5-Mal))K-OH; N-terminus and C-terminus assumed) | ~ 4 fold |  | BACTH interaction with LmGpsB (LmGpsB): significant negative impact
BsGpsB_(1-68)^Asp35Ala (domain or fragment, B. subtilis, UniProt P0CI74 1-68, looked up, GpsB, Bacillus subtilis, residues 1-68; source: E. coli, purified (Ni-NTA, thrombin, size exclusion)) MLADKVKLSAKEILEKEFKTGVRGYKQEDVDKFLAMIIKDYETFHQEIEELQQENLQLKKQLEEASKK |  |  | fold reduction in affinity against wild type [1]: > 8 fold
BsGpsB1-68^Asp35Ala: BsGpsB1-68 variant (protein, left off: His6, N-terminal, cleaved, BsGpsB1-68 variant) MLADKVKLSAKEILEKEFKTGVRGYKQEDVDKFLAMIIKDYETFHQEIEELQQENLQLKKQLEEASKK |  | little impact on protein stability | 
BsGpsB1-68^Glu17Ala: BsGpsB1-68 variant (protein, left off: His6, N-terminal, cleaved, BsGpsB1-68 variant) MLADKVKLSAKEILEKAFKTGVRGYKQEDVDKFLDMIIKDYETFHQEIEELQQENLQLKKQLEEASKK |  | little impact on protein stability | 
BsGpsB^Tyr25Phe: BsGpsB1-68 variant (protein, left off: His6, end not stated, cleaved, BsGpsB1-68 variant) MLADKVKLSAKEILEKEFKTGVRGFKQEDVDKFLDMIIKDYETFHQEIEELQQENLQLKKQLEEASKK |  | little impact on protein stability | 
BsGpsB1-68^Asp31Ala: BsGpsB1-68 variant (protein, left off: His6, N-terminal, cleaved, BsGpsB1-68 variant) MLADKVKLSAKEILEKEFKTGVRGYKQEDVAKFLDMIIKDYETFHQEIEELQQENLQLKKQLEEASKK |  | little impact on protein stability | 
BsGpsB_(1-68)^Glu17Ala (domain or fragment, B. subtilis, UniProt P0CI74 1-68, looked up, GpsB, Bacillus subtilis, residues 1-68; source: E. coli, purified (Ni-NTA, thrombin, size exclusion)) MLADKVKLSAKEILEKAFKTGVRGYKQEDVDKFLDMIIKDYETFHQEIEELQQENLQLKKQLEEASKK |  |  | fold reduction in affinity against wild type [1]: > 8 fold
MSDQFNSREARRKANC(TAMRA‑maleimide)KSSPSPKKGKKAKKGG (peptide, UniProt P39793 1-32, looked up, PBP1, Bacillus subtilis, residues 1-32; source: E. coli, His-tagged MBP fusion purified (Ni-NTA), labelled, TEV-cleaved, ultrafiltration) [BsPBP1_(1-32)^Arg28Ala, TAMRA-labelled at position 16] |  |  | binding result (BsGpsB_(1-68)): binds
